Test results reported in paper PMC2928128.

Tests used:
Assay in all cases: SPR
[1] = molecular target: GST-CDH23Δexon68ΔITEL (residues 847-1075)
[2] = molecular target: GST-CDH23Δexon68 (cytoplasmic region of cadherin-23 lacking the exon68-encoded sequence, residues 847-1079)
[3] = molecular target: GST-CDH23 + exon68ΔITEL (residues 847-1110)
[4] = molecular target: GST-CDH23 + exon68 (cytoplasmic region of cadherin-23 including the exon68-encoded sequence, residues 847-1114)

Sequence of harmonin-a PDZ3 domain (residues 434-545) (domain or fragment) (Q9ES64 434-545): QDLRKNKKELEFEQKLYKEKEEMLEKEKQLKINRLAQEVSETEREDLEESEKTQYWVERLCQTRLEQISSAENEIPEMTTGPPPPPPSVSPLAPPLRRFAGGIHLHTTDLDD

Kd [1]: > 5 µM
Kd [2]: > 5 µM
Kd [3]: > 5 µM
Kd [4]: > 5 µM
Substance: harmonin-a PDZ3 domain (residues 434-545) (domain or fragment)
